Laboratory results published in patent US20120077731A1 (Ablynx, published 2012).
Several values for one entry are separate records, joined by “and”; a condition that tells them apart may be missing. Equal entries are not always repeated.

T1: Mouse IL-6R (mouse, UniProt P22272 20-364, limits assumed)
T1 construct: also called mouse sIL-6R
T1 sequence (looked up): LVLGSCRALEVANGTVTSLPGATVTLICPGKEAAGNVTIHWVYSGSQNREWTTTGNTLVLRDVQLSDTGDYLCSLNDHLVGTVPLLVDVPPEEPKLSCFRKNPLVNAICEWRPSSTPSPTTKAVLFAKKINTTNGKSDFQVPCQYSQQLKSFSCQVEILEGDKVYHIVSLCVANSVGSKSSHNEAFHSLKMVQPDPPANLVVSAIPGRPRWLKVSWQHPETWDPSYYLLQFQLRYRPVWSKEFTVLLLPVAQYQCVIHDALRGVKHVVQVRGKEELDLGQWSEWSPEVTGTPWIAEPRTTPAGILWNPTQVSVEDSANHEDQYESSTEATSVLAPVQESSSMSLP

T2: Human soluble IL-6R (human, UniProt P08887 20-358)
T2 construct: Soluble recombinant form; biotinylated in some assays; also called hIL-6R; human IL-6R
T2 sequence (looked up): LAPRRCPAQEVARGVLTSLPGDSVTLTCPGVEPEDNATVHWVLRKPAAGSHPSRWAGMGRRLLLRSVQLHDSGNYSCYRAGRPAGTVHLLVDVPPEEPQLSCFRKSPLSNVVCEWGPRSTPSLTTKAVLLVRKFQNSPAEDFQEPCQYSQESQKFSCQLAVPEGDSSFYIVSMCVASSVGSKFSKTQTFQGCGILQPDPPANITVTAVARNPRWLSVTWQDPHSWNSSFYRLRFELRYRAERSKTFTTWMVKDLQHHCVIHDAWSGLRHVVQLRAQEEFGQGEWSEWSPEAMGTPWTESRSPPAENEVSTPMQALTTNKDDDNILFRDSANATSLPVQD

T3: Human membrane IL-6R on cells (human, UniProt P08887 20-468)
T3 sequence (looked up): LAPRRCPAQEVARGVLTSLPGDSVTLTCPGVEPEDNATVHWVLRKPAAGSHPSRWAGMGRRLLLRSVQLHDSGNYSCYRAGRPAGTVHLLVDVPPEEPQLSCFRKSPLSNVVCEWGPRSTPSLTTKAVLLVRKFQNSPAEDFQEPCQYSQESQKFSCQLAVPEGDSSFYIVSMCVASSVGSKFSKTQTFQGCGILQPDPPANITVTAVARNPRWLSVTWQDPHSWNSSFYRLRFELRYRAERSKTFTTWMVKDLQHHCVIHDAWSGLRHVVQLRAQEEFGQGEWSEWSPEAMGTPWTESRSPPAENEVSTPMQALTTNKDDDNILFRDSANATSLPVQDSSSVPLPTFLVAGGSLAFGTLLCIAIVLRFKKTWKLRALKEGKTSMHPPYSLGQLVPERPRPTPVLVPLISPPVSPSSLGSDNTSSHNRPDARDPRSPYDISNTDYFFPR


Assays:
Mouse IL-6R = target: T1, Mouse IL-6R; test: ELISA: plate coated with 1 µg/ml mouse IL-6R, 500 nM Nanobody, anti-myc + anti-mouse-HRP
Description: Detection was performed with anti-myc and anti-mouse-HRP as first and second antibody respectively.

Human soluble IL-6R [1] = target: T2, Human soluble IL-6R; test: Alphascreen, 100 nM Nanobody, 0.4 nM bio-IL-6R; competitor: reference Fab
Human soluble IL-6R [2] = target: T2, Human soluble IL-6R; test: competition for IL-6R, competitor reference Fab, summary table C-13
Human soluble IL-6R [3] = target: T2, Human soluble IL-6R; test: inhibition of the IL-6/IL-6R interaction, summary table C-13
Description: (§1) Finally streptavidin donor beads were added and after 1 hour incubator the plate was read on the Envision microplate reader.

Human soluble IL-6R [4] = target: T2, Human soluble IL-6R; test: summary table C-13 of Nanobody characteristics, Kd on IL-6R
Description: (§2) Nanobodies were injected at 5 different concentrations between 1 and 50 nM. Flow rate was 45 μl/min in all experiments. Association and dissociation phase were 3 and 10 min, respectively. The chip was regenerated using Glycine/HCl pH 1.5.

Human soluble IL-6R [5] = target: T2, Human soluble IL-6R; test: Biacore off-rate, periplasmic extract
Human soluble IL-6R [6] = target: T2, Human soluble IL-6R; test: Alphascreen, inhibition of bio-IL-6 binding to IL-6R
Description: as §1

[7] = target: T3, Human membrane IL-6R on cells; test: cell-based or functional assay
Human soluble IL-6R [8] = target: T2, Human soluble IL-6R; test: SPR Biacore 3000, IL-6R amine-coupled to CM5
Description: as §2

[9] = target: T3, Human membrane IL-6R on cells; test: cell-based or functional assay; remark: listed apart in the source
[10] = target: T3, Human membrane IL-6R on cells; test: cell-based or functional assay; remark: listed apart in the source
Human soluble IL-6R [11] = target: T2, Human soluble IL-6R; test: Biacore off-rate, periplasmic extracts

Binder	binding result (Mouse IL-6R)	Residual reference-Fab binding to IL-6R (%) (Human soluble IL-6R [1])	Ref Fab competition (%) (Human soluble IL-6R [2])	IC50 (Human soluble IL-6R [3]) [nM]	Kd (Human soluble IL-6R [4]) [nM]	koff (Human soluble IL-6R [5]) [s⁻¹]	IC50 (Human soluble IL-6R [6]) [nM]	IC50 (nM) XG-1 [7] [nM]	Kd (Human soluble IL-6R [8])	koff (Human soluble IL-6R [8])	kon (Human soluble IL-6R [8])	IC50 (nM), TF1 cell proliferation [9] [nM]	IC50 (nM) + HSA, XG-1 cell proliferation [10] [nM]	IC50 (nM), XG-1 cell proliferation [10] [nM]	koff (Human soluble IL-6R [11]) [s⁻¹]
IL6R09 (VHH, also called PMP34G9; not shown: C-terminal c-myc and (His)6 tags) VHH: EVQLVESGGGLVQAGGSLRLSCAASGRTSSSYDMTWYRQVPGKEREFVAVISWSGGSTYYADSVKGRFTISRDNAKNTVYLQMNSLKPEDTAIYYCNAYTGGGDDYWGQGTQVTVSS	no binding (tested: 500 nM)	62	62	0.24	2	0.00139	0.238	2.7	2 nM and 1.2 nM	0.00129 s⁻¹ and 0.0013 s⁻¹ and 0.00139 s⁻¹	641000 M⁻¹ s⁻¹ and 1.11e+06 M⁻¹ s⁻¹	8.7	3	2.7	–
IL6R85 (VHH, IL6R13 variant, tested as periplasmic extract) VHH: EVQLVESGGGLVQPGGSLRLSCAASGFTFDDYGMSWVRQAPGRGLEWVSAISWNGNNTYYTESMKGRFTISRDNAKNTLYLQMNSLRPEDTAVYYCVKGSTAIVGVPPTYPDEYDYWGQGTLVTVSS	–	–	–	–	–	–	–	–	–	–	–	–	–	–	0.0021
IL6R87 (VHH, IL6R13 variant, tested as periplasmic extract) VHH: EVQLVESGGGLVQPGGSLRLSCAASGFTFDDYGMSWVRQAPGKATEWVSAISWNGNNTYYTESMKGRFTISRDNAKNTLYLQMNSLRPEDTAVYYCVKGSTAIVGVPPTYPDEYDYWGQGTLVTVSS	–	–	–	–	–	–	–	–	–	–	–	–	–	–	0.00011
IL6R90 (VHH, IL6R13 variant, tested as periplasmic extract) VHH: EVQLVESGGGLVQPGGSLRLSCAASGFTFDDYGMSWVRQAPGKALEWVSAISWNGNNTYYTESMKGRFTISRDNAKNTLYLQMNSLRPEDTAVYYCVKGSTAIVGVPPTYPDEYDYWGQGTLVTVSS	–	–	–	–	–	–	–	–	–	–	–	–	–	–	0.0019
IL6R89 (VHH, IL6R13 variant, tested as periplasmic extract) VHH: EVQLVESGGGLVQPGGSLRLSCAASGFTFDDYGMSWVRQAPGRGTEWVSAISWNGNNTYYTESMKGRFTISRDNAKNTLYLQMNSLRPEDTAVYYCVKGSTAIVGVPPTYPDEYDYWGQGTLVTVSS	–	–	–	–	–	–	–	–	–	–	–	–	–	–	0.00019
IL6R86 (VHH, IL6R13 variant, tested as periplasmic extract) VHH: EVQLVESGGGLVQPGGSLRLSCAASGFTFDDYGMSWVRQAPGRALEWVSAISWNGNNTYYTESMKGRFTISRDNAKNTLYLQMNSLRPEDTAVYYCVKGSTAIVGVPPTYPDEYDYWGQGTLVTVSS	–	–	–	–	–	–	–	–	–	–	–	–	–	–	0.0017

Results, then the binder that gave them:

binding result (Mouse IL-6R)	Residual reference-Fab binding to IL-6R (%) (Human soluble IL-6R [1])	Ref Fab competition (%) (Human soluble IL-6R [2])	IC50 (Human soluble IL-6R [3]) [nM]	Kd (Human soluble IL-6R [4]) [nM]	koff (Human soluble IL-6R [5]) [s⁻¹]	IC50 (Human soluble IL-6R [6]) [nM]	IC50 (nM) XG-1 [7] [nM]	Kd (Human soluble IL-6R [8])	koff (Human soluble IL-6R [8])	kon (Human soluble IL-6R [8])	IC50 (nM), TF1 cell proliferation [9] [nM]	IC50 (nM) + HSA, XG-1 cell proliferation [10] [nM]	IC50 (nM), XG-1 cell proliferation [10] [nM]	koff (Human soluble IL-6R [11]) [s⁻¹]	Binder
no binding (tested: 500 nM)	64	64	0.63	9.8	0.00127	0.626	7.3	9.8 nM	0.00141 s⁻¹ and 0.00127 s⁻¹	144000 M⁻¹ s⁻¹	38	–	7.3	–	IL6R05 (VHH, also called PMP32E10; not shown: C-terminal c-myc and (His)6 tags) VHH: EVQLVESGGGLVQPGGSLRLSCAASGFTFGSYDMSWVRQAPGKGPEWVSAINSGGGSTYYADSVKGRFTISRDNAKNTLYLQMNSLKPEDTAVYYCATDWRYSDYDLPLPPPGDYWGQGTQVTVSS
no binding (tested: 500 nM)	96	96	0.22	0.3	0.000114	0.222	0.6	0.3 nM	0.0001 s⁻¹ and 0.000114 s⁻¹	402000 M⁻¹ s⁻¹	1.5	0.8	0.6	–	IL6R14 (VHH, also called PMP40H5; not shown: C-terminal c-myc and (His)6 tags) VHH: EVQLVESGGGLVQPGGSLRLSCAASGFSLDYYAIGWFRQAPGKEREGVSCMDSSSGTTSTYYSDSVKGRFTISRDDAKNTVYLQMNSLKPEDTAVYYCAADGHLNWGQRYVPCSQISWRGWNDYWGQGTQVTVSS
no binding (tested: 500 nM)	40	40	0.16	0.9	0.000417	0.158	5.4	0.9 nM and 1.9 nM	0.00034 s⁻¹ and 0.000396 s⁻¹ and 0.000417 s⁻¹	391000 M⁻¹ s⁻¹ and 215000 M⁻¹ s⁻¹	9.9	–	5.4	–	IL6R11 (VHH, also called PMP35E11; not shown: C-terminal c-myc and (His)6 tags) VHH: EVQLVESGGGLVQAGGSLRLSCAASGFTFDDYAIGWFRQAPGKEHEGVSCISSSDGSTYYADSVKGRFTISSDNAKNTVYLQMNSLKPEDTAVYYCAAERDVPARSLCGSYYWYDYRGQGTQVTVSS
no binding (tested: 500 nM)	103	103	0.52	1.7	0.000896	0.517	2.8	1.7 nM	0.00116 s⁻¹ and 0.000896 s⁻¹	678000 M⁻¹ s⁻¹	6.8	–	2.8	–	IL6R12 (VHH, also called PMP35F4; not shown: C-terminal c-myc and (His)6 tags) VHH: EVQLVESGGGLVQAGGSLRLSCAASGRTFSSYDMGWYRQAPGKEREFVAIITWNSSTYYADSVKGRFTISRDNAKNTVYLQMNSLKPEDTAIYYCNAQYGLGYAEDYWGQGTQVTVSS
no binding (tested: 500 nM)	102	102	0.6	1.3	0.000509	0.596	2.5	1.3 nM	0.000526 s⁻¹ and 0.000509 s⁻¹	414000 M⁻¹ s⁻¹	9.9	–	2.5	–	IL6R10 (VHH, also called PMP35C10; not shown: C-terminal c-myc and (His)6 tags) VHH: EVQLVESGGGLVQAGGSLRLSCAASGRTFSSYDMGWYRQAPGKEREFVAVIHWSSGSTYYADPVKGRFTISRDNAKNTVYLQMNSLKPEDTAIYYCNAFLPGPEGFHDYWGQGTQVTVSS
no binding (tested: 500 nM)	99	99	1.18	10.2	–	1.18	36.6	10.2 nM	0.00197 s⁻¹	194000 M⁻¹ s⁻¹	24.3	–	36.6	–	IL6R08 (VHH, also called PMP34A12; not shown: C-terminal c-myc and (His)6 tags) VHH: EVQLVESGGGLVQPGGSLRLSCVASGFSLDYYVIGWFRQAPGKEREGVSCISSSDGSTYYADSVKGRFTISRDNAKNTVYLQMNSLKPEDTAVYYCAADLLRTPEFCVDSAPYDYWGQGTQVTVSS
no binding (tested: 500 nM)	80	80	1.44	–	0.000242	1.44	50.5	–	0.000242 s⁻¹	–	375	–	50.5	–	IL6R07 (VHH, also called PMP33A3; not shown: C-terminal c-myc and (His)6 tags) VHH: EVQLVESGGGLVQPGGSLRLSCAASGFTLDYGAIGWFRQAPGKEREGVSCISSSTGSTYYADSVKGRFTISRDNGKNTVYLQMNSLKPEDTAVYYCAADKMWSPCLVAANEEALFEYDYWGQGTQVTVSS
